These results are taken from publication PMC6378684 (Journal of Molecular Biology, 2019).

Assay [1] has as its target T1, Cut7MD (fission yeast kinesin-5 Cut7 motor domain) (Schizosaccharomyces pombe, UniProt P24339).
T1 construct: monomeric motor domain, residues 67-432, lacks N-terminal extension; His6 tag removed by TEV; expressed in E. coli BL21*(DE3)
T1 sequence (P24339 67-432): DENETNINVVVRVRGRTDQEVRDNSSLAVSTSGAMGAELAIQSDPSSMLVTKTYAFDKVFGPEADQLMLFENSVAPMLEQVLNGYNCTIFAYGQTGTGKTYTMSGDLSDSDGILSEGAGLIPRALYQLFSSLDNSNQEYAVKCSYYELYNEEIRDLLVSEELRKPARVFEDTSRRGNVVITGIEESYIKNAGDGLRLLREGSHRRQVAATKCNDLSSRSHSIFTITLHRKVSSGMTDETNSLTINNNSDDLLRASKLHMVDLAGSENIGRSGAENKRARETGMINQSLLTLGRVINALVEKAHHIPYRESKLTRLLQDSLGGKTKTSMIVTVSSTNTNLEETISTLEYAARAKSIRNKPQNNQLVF
The assay can be described thus: cryo-EM structure, […] Å. In kind it is binding. The settings on record: nucleotide pocket, with Mg; bound to S. pombe microtubules.

The target of assay [2] is S. pombe tubulin microtubules (Sp_tub MTs), epothilone-stabilised (S. pombe) (UniProt P04688).
Chain of S. pombe tubulin microtubules (Sp_tub MTs), epothilone-stabilised (S. pombe) (P04688 whole entry, chain 1 of 2, the tested form may be a part): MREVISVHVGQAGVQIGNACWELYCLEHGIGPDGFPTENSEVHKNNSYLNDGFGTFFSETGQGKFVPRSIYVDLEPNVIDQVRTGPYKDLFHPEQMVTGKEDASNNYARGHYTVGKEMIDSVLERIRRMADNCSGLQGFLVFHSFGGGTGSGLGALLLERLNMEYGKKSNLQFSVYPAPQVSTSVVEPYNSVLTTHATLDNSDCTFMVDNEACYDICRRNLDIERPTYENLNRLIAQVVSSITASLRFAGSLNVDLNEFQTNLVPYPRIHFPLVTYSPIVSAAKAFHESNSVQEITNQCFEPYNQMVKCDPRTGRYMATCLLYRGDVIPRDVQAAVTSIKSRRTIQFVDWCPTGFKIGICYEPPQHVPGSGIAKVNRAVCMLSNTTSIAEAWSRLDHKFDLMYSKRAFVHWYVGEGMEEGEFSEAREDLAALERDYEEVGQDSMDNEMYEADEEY
Chain of S. pombe tubulin microtubules (Sp_tub MTs), epothilone-stabilised (S. pombe) (P05219 whole entry, chain 2 of 2, further chain, the tested form may be a part): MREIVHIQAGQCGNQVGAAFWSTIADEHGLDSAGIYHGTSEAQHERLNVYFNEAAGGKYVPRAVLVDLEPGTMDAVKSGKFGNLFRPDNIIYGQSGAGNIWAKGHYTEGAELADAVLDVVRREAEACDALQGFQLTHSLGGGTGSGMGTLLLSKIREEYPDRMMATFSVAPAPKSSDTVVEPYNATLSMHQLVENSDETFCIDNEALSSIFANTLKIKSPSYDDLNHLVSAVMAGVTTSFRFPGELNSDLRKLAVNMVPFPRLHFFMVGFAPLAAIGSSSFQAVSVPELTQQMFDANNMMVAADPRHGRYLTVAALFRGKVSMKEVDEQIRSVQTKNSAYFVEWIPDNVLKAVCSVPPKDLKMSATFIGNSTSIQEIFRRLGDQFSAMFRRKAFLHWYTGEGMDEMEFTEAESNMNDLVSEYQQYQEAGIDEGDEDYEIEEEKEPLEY
Assay [3] deals with T1, Cut7MD (fission yeast kinesin-5 Cut7 motor domain). Nature of the assay: microtubule-stimulated ATPase, pyruvate kinase / lactate dehydrogenase coupled. The settings on record: 5 mM ATP; epothilone-stabilised S. pombe microtubules; 1 mM MgCl2, pH 8.0, 32 °C. The format is biochemical.
For assay [4] the target is unchanged. The assay can be described thus: microtubule-stimulated steady-state ATPase, enzyme-coupled. The settings on record: 3.8 μM motor; 100 nM mammalian (bovine) microtubules. In kind it is biochemical.
Assay [5] has as its target Mammalian brain tubulin microtubules (Mam_tub MTs), paclitaxel-stabilised (bovine), Q6B856.

Chain of Mammalian brain tubulin microtubules (Mam_tub MTs), paclitaxel-stabilised (bovine), Q6B856 (Q6B856 whole entry, looked up): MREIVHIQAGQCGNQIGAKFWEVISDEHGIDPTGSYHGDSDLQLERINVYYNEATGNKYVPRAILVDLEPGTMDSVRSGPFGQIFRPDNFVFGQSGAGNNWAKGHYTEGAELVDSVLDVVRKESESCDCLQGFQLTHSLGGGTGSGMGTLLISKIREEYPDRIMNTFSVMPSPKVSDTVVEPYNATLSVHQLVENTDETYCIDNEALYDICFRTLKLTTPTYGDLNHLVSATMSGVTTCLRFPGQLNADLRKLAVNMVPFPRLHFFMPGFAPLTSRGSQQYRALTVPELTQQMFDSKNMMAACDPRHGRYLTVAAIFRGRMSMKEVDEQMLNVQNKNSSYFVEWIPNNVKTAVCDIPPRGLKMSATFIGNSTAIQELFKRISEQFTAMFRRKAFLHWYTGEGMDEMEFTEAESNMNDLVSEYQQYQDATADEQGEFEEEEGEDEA

Regarding `Nc1ncnc2c1ncn2[C@@H]1O[C@H](COP(=O)(O)OP(=O)(O)NP(=O)(O)O)[C@@H](O)[C@H]1O` [AMPPNP, adenosine 5′-(β,γ-imido)triphosphate], the “cryo-EM structure, 4.5 Å” value in assay [1] is recorded as “strong density in the nucleotide binding pocket corresponding to bound Mg-AMPPNP”.
On to “Cut7 motor domain (Cut7MD), residues 67–432 of the fission yeast kinesin-5 Cut7 (from UniProt P24339 67-432) (domain or fragment)”, for which, in assay [2], the K0.5MT of the MT-stimulated steady-state ATPase of Cut7MD (Hanes–Woolf plot) was 13.4 nM, the K0.5MT of the MT-stimulated steady-state ATPase of Cut7MD (Michaelis–Menten fit) was 13.9 nM, the Vmax of the MT-stimulated steady-state ATPase of Cut7MD (Hanes–Woolf plot) was 1.17 ATP/s and the Vmax of the MT-stimulated steady-state ATPase of Cut7MD (Michaelis–Menten fit) amounted to 1.14 ATP/s.
On to `Nc1ncnc2c1ncn2[C@@H]1O[C@H](COP(=O)(O)OP(=O)(O)OP(=O)(O)O)[C@@H](O)[C@H]1O` [ATP], for which the “microtubule-stimulated ATPase, pyruvate kinase / lactate dehydrogenase coupled” value in assay [3] is “we measured the steady-state ATPase activity of Cut7MD on Sp_tub MTs and Mam_tub MTs”.
Turning to `N[C@@H](CSC(c1ccccc1)(c1ccccc1)c1ccccc1)C(=O)O` [STLC, (+)-S-trityl-L-cysteine], the “% of their uninhibited rates at 2 μM and 20 μM” value in assay [4] is “Cut7MD is not detectably inhibited by STLC”.

B1: Cut7 motor domain (Cut7MD), residues 67–432 of the fission yeast kinesin-5 Cut7, P24339 67-432 (domain or fragment)
chain: DENETNINVVVRVRGRTDQEVRDNSSLAVSTSGAMGAELAIQSDPSSMLVTKTYAFDKVFGPEADQLMLFENSVAPMLEQVLNGYNCTIFAYGQTGTGKTYTMSGDLSDSDGILSEGAGLIPRALYQLFSSLDNSNQEYAVKCSYYELYNEEIRDLLVSEELRKPARVFEDTSRRGNVVITGIEESYIKNAGDGLRLLREGSHRRQVAATKCNDLSSRSHSIFTITLHRKVSSGMTDETNSLTINNNSDDLLRASKLHMVDLAGSENIGRSGAENKRARETGMINQSLLTLGRVINALVEKAHHIPYRESKLTRLLQDSLGGKTKTSMIVTVSSTNTNLEETISTLEYAARAKSIRNKPQNNQLVF
Turning to B1, in assay [5], the K0.5MT of the MT-stimulated steady-state ATPase of Cut7MD (Hanes–Woolf plot) worked out at 14.3 nM, the K0.5MT of the MT-stimulated steady-state ATPase of Cut7MD (Michaelis–Menten fit) amounted to 19.9 nM, the Vmax of the MT-stimulated steady-state ATPase of Cut7MD (Hanes–Woolf plot) worked out at 1.19 ATP/s and the Vmax of the MT-stimulated steady-state ATPase of Cut7MD (Michaelis–Menten fit) turned out to be 1.25 ATP/s.
